Assay results: US20150376269A1 (Regeneron, published 2015)

B1: apoL1 peptide (SEQ ID NO: 297) (peptide)
peptide: VYESKHLHEGAKSETAEELKKVAQELEEKLNILNNNYKILQADQEL
notes: Peptide of human apolipoprotein L1 used in the H/D exchange experiment
B2: H1H10041P (antibody, V domains shown)
VH: QVQLVQSGAEVRKPGSSMKVSCATSGGNFRSYTINWVRQAPGQGLEWMGGVFPAVGTRIYAQKFQGRVTISTDESTTIAYMELNSLVPEDTAVYYCARSFNSPFDFWDQGTLVTVSS
VL: AIQMTQSPSSLSASVGDRVTLTCRASQDIRNDLHWFQQTPGKAPRLLIYSASNLQSGVPSRFSGTGSGTDFTLTFSSLQPEDFATYYCLQDYSYPYTFGQGTKLEIK
notes: Fully human antibody with human IgG1 Fc (prefix H1H)
B3: H2bM10093N (antibody, V domains shown)
VH: EVQLVESGGGLVKPGGSLRLSCVASGFTLSGYSMNWVRQAPGKGLEWVSSISTSSSYIYYADSVQGRFTISRDNAKNSLYLQMNSLRAEDTAVYYCVRKGANWIYFDYWGQGTLVTVSS
VL: DIQMTQSPSSVSASVGDRVTITCRASQGISSLLAWFQQKPGKAPNLLIYAASSLQSGVPSRFSGSGSGTDFTLTISSLQPEDFATYYCQQAKSFPFTFGPGTKVDIK
notes: Chimeric antibody, human variable domains and mouse constant domains; also called H2aM10093N; H2M10093N

Columns and labels:
[1] = biological target: T1, serum resistance-associated protein (SRA) from Trypanosoma brucei rhodesiense, recombinant SRA (SEQ ID NO: … (Trypanosoma brucei rhodesiense, UniProt O96637 31-274)); experiment: H/D exchange MS, SRA-apoL1 peptide complex, pH 5.0
T1 construct: also called SRA protein
T1 sequence: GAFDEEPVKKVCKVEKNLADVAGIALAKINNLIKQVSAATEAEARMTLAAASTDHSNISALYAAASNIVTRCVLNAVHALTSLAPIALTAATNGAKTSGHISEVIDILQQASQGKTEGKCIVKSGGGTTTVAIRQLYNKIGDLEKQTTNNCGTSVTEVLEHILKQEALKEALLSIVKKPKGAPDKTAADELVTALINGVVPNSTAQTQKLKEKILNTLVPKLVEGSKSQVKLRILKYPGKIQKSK

[2] = biological target: T1, serum resistance-associated protein …; experiment: SPR, 25C, t1/2 pH 7.4 over pH 4.5
Method: (§1) Equilibrium dissociation constants (KD) values for SRA binding to selected purified anti-SRA monoclonal antibodies were determined using a real-time surface plasmon resonance biosensor assay on a Biacore T200 instrument. […] SRA binding to the captured monoclonal antibodies was monitored for 4 min while the dissociation of mAb bound SRA was monitored for 7 min. Two different assays formats were adopted to characterize kinetics of SRA binding—(i) regular kinetics and (ii) pH4.5 chase. Regular kinetics experiments were performed using pH7.4 buffer as the running buffer and both the association and dissociation was performed in pH7.4. For the chase format, association and dissociation were performed in pH7.4 buffer and pH4.5 buffer respectively.
(§2) Kinetic association (kₐ) and dissociation (kd) rate constants were determined by processing and fitting the data to a 1:1 binding model using Scrubber 2.0c curve fitting software. Only the dissociation rate (kd) was calculated for the pH4.5 chase experiment. Binding dissociation equilibrium constants (KD) and dissociative half-lives (t½) were calculated from the kinetic rate constants as:

[3] = biological target: T1, serum resistance-associated protein …; experiment: SPR, mAb captured, pH 4.5, 25C; competitor biotin-apoL1 peptide
SRA.mmh [4] = biological target: T2, SRA.mmh; experiment: Octet, SRA.mmh captured on anti-Penta-His tips, mAb-1 at 50 ug/mL for 5 min, 25 C, pH 7.4
T2 construct: also called SRA.mmh (CHO)
T2 antigen: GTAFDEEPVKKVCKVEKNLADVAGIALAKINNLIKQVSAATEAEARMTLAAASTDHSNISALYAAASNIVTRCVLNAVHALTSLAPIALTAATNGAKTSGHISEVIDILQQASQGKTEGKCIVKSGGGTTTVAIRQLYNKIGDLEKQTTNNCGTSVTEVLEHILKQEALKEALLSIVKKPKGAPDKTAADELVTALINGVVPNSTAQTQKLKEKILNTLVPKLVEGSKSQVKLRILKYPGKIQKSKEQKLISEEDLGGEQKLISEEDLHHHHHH

[5] = biological target: T1, serum resistance-associated protein …; experiment: SPR, mAb captured, 25C, assoc. pH 7.4, dissoc. pH 4.5
Method: as §1, §2

[6] = biological target: T1, serum resistance-associated protein …; experiment: SPR, mAb captured, pH 4.5, 25C; competitor biotin-mutant apoL1 peptide
SRA.mmh [7] = biological target: T2, SRA.mmh; experiment: Octet, mAb-2 at 50 ug/mL on captured SRA.mmh after negative control α-PRLR H1H6800P as mAb-1 (row 32 (-))
[8] = biological target: T1, serum resistance-associated protein …; experiment: SPR, mAb captured, 25C, pH 7.4
Method: as §1, §2

[9] = biological target: T1, serum resistance-associated protein …; experiment: SPR, mAb captured, 50 nM SRA, pH 4.5, 25C
[10] = biological target: T1, serum resistance-associated protein …; experiment: SPR, mAb captured, 25C, pH 7.4; pH 7.4, 25 C
Method: as §1, §2

Binder	binding result [1]	t ½ ratio pH 7.4/pH 4.5 [2]	50 nM SRA + 5 uM apoL1 peptide binding (RU) [3]	% Blocking, apoL1 peptide [3]	50 ug/mL mAb 1 Bound (nm) (SRA.mmh [4])	t ½ [5]	50 nM SRA + 5 uM mutant apoL1 peptide binding (RU) [6]	% Blocking, Mutant apoL1 peptide [6]	Binding of mAb-2 to SRA Pre-complexed with mAb-1 (SRA.mmh [7])	Kd [8]	kon [8]	t ½ [8]	50 nM SRA binding (RU) [9]	koff [10]
B1	binds	–	–	–	–	–	–	–	–	–	–	–	–	–
B2	–	≥ 1	3 RU	97%	1.69 nm	165 min	83 RU	5%	1.57	≤ 27.7 pM	1.8e+06 M⁻¹ s⁻¹	≥ 231 min	88 RU	–
B3	–	20	4 RU	97%	1.48 nm	1.2 min	122 RU	12%	1.32	948 pM	521000 M⁻¹ s⁻¹	23 min	138 RU	0.000494 s⁻¹
